Common to all, as to experiment: cell_activity; CHO chromosomal reporter, maximum
The target of series [1] is T1, HprCH3.3 G19S/HprCH3.4 heterodimer (synthetic, UniProt P05725;P05725 SEQ:1-163,SEQ:1-163, G19S in first chain).
T1 sequence 1: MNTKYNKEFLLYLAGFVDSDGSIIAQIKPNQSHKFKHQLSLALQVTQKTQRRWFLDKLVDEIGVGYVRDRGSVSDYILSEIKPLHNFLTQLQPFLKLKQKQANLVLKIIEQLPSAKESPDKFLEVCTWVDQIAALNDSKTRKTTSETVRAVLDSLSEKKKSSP
T1 sequence 2: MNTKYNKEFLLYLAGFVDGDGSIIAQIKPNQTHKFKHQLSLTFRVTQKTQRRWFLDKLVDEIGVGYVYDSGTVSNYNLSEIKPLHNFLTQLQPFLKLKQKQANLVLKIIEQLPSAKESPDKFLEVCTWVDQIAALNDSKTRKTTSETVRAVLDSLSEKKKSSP
From the text: (§1) To evaluate the cleavage activity of the original and G19S derived mutants a chromosomal reporter system in CHO cells was used (FIG. 20). In this system a single-copy LacZ gene driven by the CMV promoter is interrupted by the HprCH3 site and is thus non-functional. The transfection of the cell line with CHO expression plasmids for HprCH3.3/HprCH3.4 and a LacZ repair plasmid allows the restoration of a functional LacZ gene by homologous recombination. It has previously been shown that double-strand breaks can induce homologous recombination; therefore the frequency with which the LacZ gene is repaired is indicative of the cleavage efficiency of the genomic HprCH3 target site.
(§2) CHO cell lines harbouring the reporter system were seeded at a density of 2×10⁵ cells per 10 cm dish in complete medium (Kaighn's modified F-12 medium (F12-K), supplemented with 2 mM L-glutamine, penicillin (100 UI/ml), streptomycin (100 μg/ml), amphotericin B (Fongizone) (0.25 μg/ml) (INVITROGEN-LIFE SCIENCE) and 10% FBS (SIGMA-ALDRICH CHIMIE). The next day, cells were transfected with Polyfect transfection reagent (QIAGEN). Briefly, 2 μg of lacz repair matrix vector was co-transfected with various amounts of meganucleases expression vectors. After 72 hours of incubation at 37° C., cells were fixed in 0.5% glutaraldehyde at 4° C. for 10 min, washed twice in 100 mM phosphate buffer with 0.02% NP40 and stained with the following staining buffer (10 mM Phosphate buffer, 1 mM MgCl₂, 33 mM K hexacyanoferrate (III), 33 mM K hexacyanoferrate (II), 0.1% (v/v) X-Gal). After, an overnight incubation at 37° C., plates were examined under a light microscope and the number of LacZ positive cell clones counted. The frequency of LacZ repair is expressed as the number of LacZ+ foci divided by the number of transfected cells (5×10⁵) and corrected by the transfection efficiency.

Series [2] has as its target T2, HprCH3.3/HprCH3.4 heterodimer (KNSHQS/QRRDI/42A43L + KNTHQS/RYSNN/72T) (synthetic, UniProt P05725;P05725 SEQ:1-163,SEQ:1-163).
T2 chain 1: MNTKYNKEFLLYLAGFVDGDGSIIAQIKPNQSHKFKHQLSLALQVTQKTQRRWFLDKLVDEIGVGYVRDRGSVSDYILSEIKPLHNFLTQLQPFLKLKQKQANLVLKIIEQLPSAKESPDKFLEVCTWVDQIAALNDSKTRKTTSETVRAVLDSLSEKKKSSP
T2 chain 2: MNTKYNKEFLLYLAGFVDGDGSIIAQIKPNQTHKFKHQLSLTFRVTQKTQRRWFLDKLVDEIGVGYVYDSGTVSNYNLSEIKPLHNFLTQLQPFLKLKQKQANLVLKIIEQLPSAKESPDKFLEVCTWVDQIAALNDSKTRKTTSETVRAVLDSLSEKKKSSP
Description: as §1, §2

Series [3] has as its target T3, HprCH3.3/HprCH3.4 G19S heterodimer (synthetic, UniProt P05725;P05725 SEQ:1-163,SEQ:1-163, G19S in second chain).
T3 sequence 1: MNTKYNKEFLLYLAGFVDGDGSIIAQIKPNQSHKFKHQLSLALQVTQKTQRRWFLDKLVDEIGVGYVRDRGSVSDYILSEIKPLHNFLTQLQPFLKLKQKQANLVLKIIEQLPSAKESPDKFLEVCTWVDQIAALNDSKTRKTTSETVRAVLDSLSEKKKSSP
T3 sequence 2: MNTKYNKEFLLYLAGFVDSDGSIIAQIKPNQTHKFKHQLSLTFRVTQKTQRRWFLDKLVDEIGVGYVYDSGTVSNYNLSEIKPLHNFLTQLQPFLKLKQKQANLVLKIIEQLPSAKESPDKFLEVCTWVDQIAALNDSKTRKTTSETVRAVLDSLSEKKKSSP
Description: as §1, §2

B1: HprCH3 (dsDNA)
DNA 1: CGAGATGTCATGAAAGAGATGG
DNA 2: CCATCTCTTTCATGACATCTCG
For B1, the activity was 0.0115 LacZ repair frequency in series [1], 0.002 LacZ repair frequency in series [2] and 0.012 LacZ repair frequency in series [3].

These data come from patent publication US20100146651, “MEGANUCLEASE VARIANTS CLEAVING A DNA TARGET SEQUENCE FROM THE HPRT GENE AND USES THEREOF” (CELLECTIS, published 2010).
